Measured values taken from US20160097044A1, “Antimicrobial Enzyme Fusions Reduce Resistance and Kill Intracellular Staphylococcus aureus” (The United States of America, as Represented by the …, priority 2014, published 2016).

How the values were obtained:
S. hyicus MP01 = experiment: Minimum Inhibitory Concentration (MIC) assay; assay type: cell-based, Staphylococcus hyicus; settings: Mastitis isolate S. hyicus MP01
N315 (NRS 70) = experiment: Minimum Inhibitory Concentration (MIC) assay; assay type: cell-based, S. aureus
Protocol: (§1) The Minimum Inhibitory Concentrations (MIC) of each protein for multiple S. aureus strains was determined as previously described (Jones et al. 1985. In: Manual of Clinical Microbiology, Eds. Balows et al. American Society of Microbiology, Washington D.C., pp. 972-977) with the following modifications. Enzymes were serially diluted two fold across a 96 well plate, such that after dilution, 50 μl of the enzyme solution in 300 mM NaCl, 50 mM NaH2PO4, 30% glycerol pH 7.5, remained in each well. To each well was added 50 μl of TSB and 100 μl of S. aureus Newman in TSB (diluted to 5×10^6 cells/ml). The plates were incubated 20 h at 37° C. and read with a 96 well plate reader. MIC determination values were reported as the median of ≧4 replicates (Table 1).

USA 400 (NRS 123) = experiment: Minimum Inhibitory Concentration (MIC) assay; assay type: cell-based, S. aureus
Protocol: as §1

NRS 193 = experiment: Minimum Inhibitory Concentration (MIC) assay; assay type: cell-based, S. aureus
Protocol: as §1

Sanger 252 (NRS 71) = experiment: Minimum Inhibitory Concentration (MIC) assay; assay type: cell-based, S. aureus
Protocol: as §1

NRS 271 = experiment: Minimum Inhibitory Concentration (MIC) assay; assay type: cell-based, S. aureus
Protocol: as §1

USA 200 (NRS 383) = experiment: Minimum Inhibitory Concentration (MIC) assay; assay type: cell-based, S. aureus
Protocol: as §1

NRS 194 = experiment: Minimum Inhibitory Concentration (MIC) assay; assay type: cell-based, S. aureus
Protocol: as §1

USA 500 (NRS 385) = experiment: Minimum Inhibitory Concentration (MIC) assay; assay type: cell-based, S. aureus
Protocol: as §1

NRS 209 = experiment: Minimum Inhibitory Concentration (MIC) assay; assay type: cell-based, S. aureus
Protocol: as §1

S. simulans MP03 = experiment: Minimum Inhibitory Concentration (MIC) assay; assay type: cell-based, Staphylococcus simulans; settings: Mastitis isolate S. simulans MP03
S. aureus strain ALR = experiment: Rat nasal colonization model; assay type: in vivo, Wistar rats
Source text: FIGS. 1a-1c depict peptidoglycan hydrolase construct schematics, resistance development and effectiveness in eradicating S. aureus carriage in a rat colonization model. FIG. 1a is a schematic of the peptidoglycan hydrolase constructs. Domains: CHAP endopeptidase (CHAP, red box); N-acetylmuramoyl-L-alanine amidase (AMID, green box); M23 endopeptidase (PEP, blue oval); CBDs (LysK SH3b, gold diamond; lysostaphin SH3b, gold diamond with dot); protein transduction domain (PTD, blue circle); hexahistidine purification tag (His6). Domains are not to scale. Specific peptidoglycan cut sites are illustrated in FIG. 3a. FIG. 1b depicts in vitro antimicrobial resistance development. Engineered triple fusions K-L and L-K suppress antimicrobial resistance development compared to LysK (K), lysostaphin (L), or a combination of equimolar concentrations of both (L+K). Changes in Minimum Inhibitory Concentrations (MIC) are depicted as a fold-change at the tenth round of sublethal exposure compared to the first exposure, with the average fold-change of 4 replicates in red. Error bars=SEM. First exposure MICs: Lysostaphin, 0.77 μg/ml (27 nM); LysK, 47 μg/ml (840 nM); Lysostaphin and LysK (L+K) in combination 0.2 μg/ml (7 nM and 3 nM, respectively); triple fusion K-L, 7 μg/ml (97 nM); triple fusion L-K, 7.8 μg/ml (107 nM). FIG. 1c depicts reduction in colonization in a rat nasal carriage model. Rats were inoculated with S. aureus strain ALR on Day 1. After 5 days, the rats were treated twice daily for 3 days with 20 μl of a 10 mg/ml solution of each enzyme. The rat noses were excised on day 10, homogenized, and quantitative cultures were performed. Each point represents the CFU recovered from an individual rat. Bars indicate the median CFU/nose recovered from treated rats. […] Data were compiled from five independent experiments. Lyso=commercially purchased lysostaphin (AMBI, Tarrytown, N.Y.). Statistical comparisons were made with the Mann-Whitney test. SEQ ID NOs of depicted peptidoglycan hydrolase constructs: Lysostaphin (SEQ ID NO:1); Lysostaphin-PTD1-4, 6-12 (SEQ ID NOs:9, 11, 13, 15, 17, 19, 21, 23, 25, 27, 29, respectively); LysK (SEQ ID NO:3); LysK-PTD1-11 (SEQ ID NOs: 31, 33, 35, 37, 39, 41, 43, 45, 47, 49, 51, respectively); LysK-Lysostaphin Fusion K-L (SEQ ID NO:5); K-L-PTD1-4, 6-11 (SEQ ID NOs:53, 55, 57, 59, 61, 63, 65, 67, 69, 71, respectively); Lysostaphin-LysK Fusion L-K (SEQ ID NO:7).
Reduction in nasal colonization was observed when rats were challenged on day 0 with 10^7 CFU S. aureus strain ALR and then treated twice per day on days 5, 6, and 7 with 10 μl of 2% mupirocin calcium ointment (Bactroban Nasal) or petrolatum/softisan placebo. Noses from rats were homogenized and cultured quantitatively on day 10. Each point represents the CFU recovered from an individual rat, and the data were compiled from two independent experiments. Data were analyzed by the Mann-Whitney test, and horizontal lines represent median values. Mupirocin reduced colonization ˜98% compared to the placebo control.
The rat nasal colonization model is an adaptation of the mouse nasal colonization model that we described previously (Schaffer et al. 2006. Infect. Immun. 74:2145-2153). All animal experiments were conducted in accordance with a protocol approved by the appropriate Institutional Animal Care and Use Committees. Wistar rats (5 to 6 wks of age) were obtained from Charles River Laboratories (Wilmington, Mass.) and given food and water ad libitum. The animals were housed two per cage in a modified barrier facility under viral antibody-free conditions. The rats were given drinking water containing streptomycin sulfate (0.5 g/liter; Sigma) 1 day prior to bacterial inoculation and for the course of the experiment. The drinking water and cages were changed three times per week. […]

S. aureus Newbould 305 = experiment: Minimum Inhibitory Concentration (MIC) assay; assay type: cell-based; settings: Mastitis isolate S. aureus Newbould 305
Protocol: as §1

S. aureus ALR = experiment: Minimum Inhibitory Concentration (MIC) assay; assay type: cell-based
Protocol: as §1

S. aureus Newman = experiment: Minimum Inhibitory Concentration (MIC) assay; assay type: cell-based
Protocol: as §1

B1: L-K: LysK lytic domains inserted between lysostaphin's M23 endopeptidase domain and SH3b cell wall binding domain; SEQ ID NO:7, protein SEQ ID NO:8 (protein)
chain: MAATHEHSAQWLNNYKKGYGYGPYPLGINGGMHYGVDFFMNIGTPVKAISSGKIVEAGWSNYGGGNQIGLIENDGVHRQWYMHLSKYNVKVGDYVKAGQIIGWSGSTGYSTAPHLHFQRMVNSFSNSTAQDPMPFLKSAGYGKAGGTVTPTPNTGLDAKTQAEINKRLDAYAKGTVDSPYRVKKATSYDPSFGVMEAGAIDADGYYHAQCQDLITDYVLWLTDNKVRTWGNAKDQIKQSYGTGFKIHENKPSTVPKKGWIAVFTSGSYEQWGHIGIVYDGGNTSTFTILEQNWNGYANKKPTKRVDNYYGLTHFIEIPVKAGTTVKKETAKKSASKTPAPKKKATLKVSKNHINYTMDKRGKKPEGMVIHNDAGRSSGQQYENSLANAGYARYANGIAHYYGSEGYVWEAIDAKNQIAWHTGDGTGANSGNFRFAGIEVCQSMSASDAQFLKNEQAVFQFTAEKFKEWGLTPNRKTVRLHMEFVPTACPHRSMVLHTGFNPVTQGRPSQAIMNKLKDYFIKQIKNYMDKGTSSSTVVKDGKTSSASLDTVTPTPNTGWKTNKYGTLYKSESASFTPNTDIITRTTGPFRSMPQSGVLKAGQTIHYDEVMKQDGHVWVGYTGNSGQRIYLPVRTWNKSTNTLGVLWGTIKLEHHHHHH
modifications: Staphylococcus simulans & Phage K
S. hyicus MP01
  Minimum Inhibitory Conc. (median μg/ml): 0.37 µg/mL
N315 (NRS 70)
  Minimum Inhibitory Conc. (median μg/ml): 16 µg/mL
USA 400 (NRS 123)
  Minimum Inhibitory Conc. (median μg/ml): 16 µg/mL
NRS 193
  Minimum Inhibitory Conc. (median μg/ml): 12 µg/mL
Sanger 252 (NRS 71)
  Minimum Inhibitory Conc. (median μg/ml): 6.8 µg/mL
NRS 271
  Minimum Inhibitory Conc. (median μg/ml): 9.8 µg/mL
USA 200 (NRS 383)
  Minimum Inhibitory Conc. (median μg/ml): 5.9 µg/mL
NRS 194
  Minimum Inhibitory Conc. (median μg/ml): 12 µg/mL
USA 500 (NRS 385)
  Minimum Inhibitory Conc. (median μg/ml): 12 µg/mL
NRS 209
  Minimum Inhibitory Conc. (median μg/ml): 12 µg/mL
S. simulans MP03
  Minimum Inhibitory Conc. (median μg/ml): 5.9 µg/mL
S. aureus strain ALR; 200 μg intranasally twice a day on days 5, 6, 7, noses cultured day 10
  decrease in CFU/nose (nasal colonization) compared to rats treated with buffer: 98%
S. aureus strain ALR; rat nasal decolonization model
  bacterial load reduction relative to either parental enzyme: 5-10 fold
S. aureus Newbould 305
  Minimum Inhibitory Conc. (median μg/ml): 12 µg/mL
S. aureus ALR; N=8, value ± spread
  MIC for S. aureus ALR (comparison for post-treatment isolates): 9.4 ± 6.1 µg/mL
S. aureus ALR; S. aureus ALR
  Minimum Inhibitory Conc. (median μg/ml): 4.4 µg/mL
S. aureus Newman; S. aureus Newman
  Minimum Inhibitory Conc. (median μg/ml): 7.8 µg/mL
S. aureus Newman; first exposure of the resistance development experiment, FIG. 1b
  First exposure MIC: 7.8 µg/mL
S. aureus Newman; first exposure, molar concentration in brackets
  First exposure MIC: 0.107 µM
